{"source": "patent US20170296650A1", "about": "(Novartis, published 2017)", "binders": {"B1": {"name": "4I22 (antibody, human IgG1, V domains shown)", "VH": "QVQLVESGGGVVQPGRSLRLSCVASGFTFSSYAMHWVRQAPGKGLEWVAVISYDGDNKFYADSVKGRFRISRDTSKNTLYLEMNSLRAADTAIYYCAREELVGLMPPYYNYGLDVWGQGTTVTVSS", "VL": "QSVLTQPPSVSAAPGQKVTISCSGSNSNIGNNYVSWYQQLPGRAPKLLIYDNDHRPSGIPDRFSGSKSGTSATLVITGLQTGDEADYYCETWDTSLSAAVVFGGGTKLTVL", "notes": "fully human IgG1 with unaltered Fc; also called 4I22-biotin; 4122"}}, "key": {"[1]": {"target": "T1, hCMV gH + gL + UL128 + UL130 + UL131A (5-member complex; HEK293T co-transfectant) (hCMV, UniProt P12824 24-743; P16832 31-278; P16837 1-171; P16772 1-214)", "T1 construct": "whole, on cells; in the functional rows it stands for the complex on virions or transduced cells of the strain or isolate named in the readout; also called gH/gL/UL128-131A complex; pentameric complex", "assay": "cell competition; competitor 10F7-biotin"}, "[2]": {"target": "T1, hCMV gH + gL + UL128 + UL130 + UL131A …", "assay": "cell competition; competitor 5A2-biotin"}, "[3]": {"target": "T1, hCMV gH + gL + UL128 + UL130 + UL131A …", "assay": "cell competition; competitor 8I21-biotin"}, "[4]": {"target": "T2, hCMV UL130 + UL131A (HEK293T co-transfectant) (hCMV, UniProt P16772 1-214)", "assay": "cell-based or functional assay"}, "[5]": {"target": "T1, hCMV gH + gL + UL128 + UL130 + UL131A …", "assay": "cell competition; competitor 2C12-biotin"}, "[6]": {"target": "T1, hCMV gH + gL + UL128 + UL130 + UL131A …", "assay": "cell competition; competitor 8J16-biotin"}, "[7]": {"target": "T1, hCMV gH + gL + UL128 + UL130 + UL131A …", "assay": "cell competition; competitor 2F4-biotin"}, "[8]": {"target": "T1, hCMV gH + gL + UL128 + UL130 + UL131A …", "assay": "cell-based or functional assay"}, "[9]": {"target": "T2, hCMV UL130 + UL131A (HEK293T …)", "assay": "cell-based or functional assay", "remark": "listed apart in the source"}, "[10]": {"target": "T1, hCMV gH + gL + UL128 + UL130 + UL131A …", "assay": "cell competition; competitor 4N10-biotin"}, "[11]": {"target": "T1, hCMV gH + gL + UL128 + UL130 + UL131A …", "assay": "cell-based or functional assay", "remark": "listed apart in the source"}, "[12]": {"target": "hCMV UL130 W179R (virus selected with 4I22) (hCMV)", "assay": "cell-based or functional assay"}, "[13]": {"target": "hCMV UL130 Q191K (virus selected with 4I22) (hCMV)", "assay": "cell-based or functional assay"}, "[14]": {"target": "soluble 5-member complex (gH, gL, UL128, UL130, UL131A) (hCMV, UniProt P12824 24-716; P16832 31-278; P16837 28-171; P16772 26-214)", "assay": "Biacore SPR, soluble 5-member complex"}, "[15]": {"target": "T1, hCMV gH + gL + UL128 + UL130 + UL131A …", "assay": "cell-based or functional assay", "remark": "listed apart in the source"}, "[16]": {"target": "T1, hCMV gH + gL + UL128 + UL130 + UL131A …", "assay": "cell competition; competitor 4I22-biotin"}, "[17]": {"target": "T1, hCMV gH + gL + UL128 + UL130 + UL131A …", "assay": "cell competition; competitor 1F11-biotin"}}, "data": [{"binder": "B1", "values": [{"measurement": "Inhibition of binding (%)", "setting": "[1]", "result": 100, "unit": "%"}, {"measurement": "Inhibition of binding (%)", "setting": "[2]", "result": 0, "unit": "%"}, {"measurement": "Inhibition of binding (%)", "setting": "[3]", "result": 0, "unit": "%"}, {"measurement": "90% neutralization VR1814, ARPE", "setting": "[4]", "result": 0.0015, "unit": "µg/mL"}, {"measurement": "90% neutralization VR1814, MRC-9", "setting": "[4]", "result": "> 10", "unit": "µg/mL"}, {"measurement": "Inhibition of binding (%)", "setting": "[5]", "result": 0, "unit": "%"}, {"measurement": "Inhibition of binding (%)", "setting": "[6]", "result": 0, "unit": "%"}, {"measurement": "Inhibition of binding (%)", "setting": "[7]", "result": 100, "unit": "%"}, {"measurement": "EC90 neutralization HUVEC, isolate TM-20749", "setting": "[8]", "result": 0.011, "unit": "µg/mL"}, {"measurement": "EC90 neutralization HUVEC, isolate TM-31354", "setting": "[8]", "result": 0.012, "unit": "µg/mL"}, {"measurement": "EC90 neutralization HUVEC, isolate TM-E5271", "setting": "[8]", "result": 1, "unit": "ng/mL"}, {"measurement": "EC90 neutralization HUVEC, isolate TM-E9361", "setting": "[8]", "result": 0.016, "unit": "µg/mL"}, {"measurement": "EC90 neutralization HUVEC, isolate TM-E14953", "setting": "[8]", "result": 0.012, "unit": "µg/mL"}, {"measurement": "EC90 neutralization HUVEC, isolate TM-E19664", "setting": "[8]", "result": 0.013, "unit": "µg/mL"}, {"measurement": "EC90 neutralization HUVEC, isolate TM-E20744", "setting": "[8]", "result": 0.02, "unit": "µg/mL"}, {"measurement": "EC90 neutralization HUVEC, isolate TM-E28175", "setting": "[8]", "result": 9, "unit": "ng/mL"}, {"measurement": "EC90 neutralization HUVEC, isolate TM-E28257", "setting": "[8]", "result": 1, "unit": "ng/mL"}, {"measurement": "50% neutralization VR1814, ARPE", "setting": "[9]", "result": "< 0.01", "unit": "µg/mL"}, {"measurement": "50% neutralization VR1814, MRC-9", "setting": "[9]", "result": "> 2", "unit": "µg/mL"}, {"measurement": "Inhibition of binding (%)", "setting": "[10]", "result": 0, "unit": "%"}, {"measurement": "EC50 inhibition of cell-cell fusion", "setting": "[11]", "result": 0.076, "unit": "µg/mL"}, {"measurement": "fold decrease in susceptibility of escape virus", "setting": "[12]", "result": "> 50000", "unit": "fold"}, {"measurement": "fold decrease in susceptibility of escape virus", "setting": "[13]", "result": "> 50000", "unit": "fold"}, {"measurement": "Kd", "setting": "[14]", "result": 0.31, "unit": "nM"}, {"measurement": "neutralization of ARPE infection, isolate TM-20749", "setting": "[15]", "result": 0.01, "unit": "µg/mL"}, {"measurement": "neutralization of ARPE infection, isolate TM-31354", "setting": "[15]", "result": 0.028, "unit": "µg/mL"}, {"measurement": "neutralization of ARPE infection, isolate TM-E5271", "setting": "[15]", "result": 0.01, "unit": "µg/mL"}, {"measurement": "neutralization of ARPE infection, isolate TM-E9361", "setting": "[15]", "result": 0.002, "unit": "µg/mL"}, {"measurement": "neutralization of ARPE infection, isolate TM-E14953", "setting": "[15]", "result": 0.012, "unit": "µg/mL"}, {"measurement": "neutralization of ARPE infection, isolate TM-E19664", "setting": "[15]", "result": 0.016, "unit": "µg/mL"}, {"measurement": "neutralization of ARPE infection, isolate TM-E20744", "setting": "[15]", "result": 0.01, "unit": "µg/mL"}, {"measurement": "neutralization of ARPE infection, isolate TM-E28175", "setting": "[15]", "result": 0.006, "unit": "µg/mL"}, {"measurement": "neutralization of ARPE infection, isolate TM-E28257", "setting": "[15]", "result": 0.009, "unit": "µg/mL"}, {"measurement": "Inhibition of binding (%)", "setting": "[16]", "result": 100, "unit": "%"}, {"measurement": "Inhibition of binding (%)", "setting": "[17]", "result": 100, "unit": "%"}]}]}
